This assay concerns the target T1, CRB1-FLAG p.C1181R (human, UniProt P82279 26-1406, p.C1181R).
T1 construct: Made by site-directed mutagenesis of m1; also called CRB1 p.C1181R; CRB1-FLAG MT; source: HEK293T, transfected, in lysate; not shown: Strep-Strep-FLAG, N-terminal, kept
T1 sequence (looked up): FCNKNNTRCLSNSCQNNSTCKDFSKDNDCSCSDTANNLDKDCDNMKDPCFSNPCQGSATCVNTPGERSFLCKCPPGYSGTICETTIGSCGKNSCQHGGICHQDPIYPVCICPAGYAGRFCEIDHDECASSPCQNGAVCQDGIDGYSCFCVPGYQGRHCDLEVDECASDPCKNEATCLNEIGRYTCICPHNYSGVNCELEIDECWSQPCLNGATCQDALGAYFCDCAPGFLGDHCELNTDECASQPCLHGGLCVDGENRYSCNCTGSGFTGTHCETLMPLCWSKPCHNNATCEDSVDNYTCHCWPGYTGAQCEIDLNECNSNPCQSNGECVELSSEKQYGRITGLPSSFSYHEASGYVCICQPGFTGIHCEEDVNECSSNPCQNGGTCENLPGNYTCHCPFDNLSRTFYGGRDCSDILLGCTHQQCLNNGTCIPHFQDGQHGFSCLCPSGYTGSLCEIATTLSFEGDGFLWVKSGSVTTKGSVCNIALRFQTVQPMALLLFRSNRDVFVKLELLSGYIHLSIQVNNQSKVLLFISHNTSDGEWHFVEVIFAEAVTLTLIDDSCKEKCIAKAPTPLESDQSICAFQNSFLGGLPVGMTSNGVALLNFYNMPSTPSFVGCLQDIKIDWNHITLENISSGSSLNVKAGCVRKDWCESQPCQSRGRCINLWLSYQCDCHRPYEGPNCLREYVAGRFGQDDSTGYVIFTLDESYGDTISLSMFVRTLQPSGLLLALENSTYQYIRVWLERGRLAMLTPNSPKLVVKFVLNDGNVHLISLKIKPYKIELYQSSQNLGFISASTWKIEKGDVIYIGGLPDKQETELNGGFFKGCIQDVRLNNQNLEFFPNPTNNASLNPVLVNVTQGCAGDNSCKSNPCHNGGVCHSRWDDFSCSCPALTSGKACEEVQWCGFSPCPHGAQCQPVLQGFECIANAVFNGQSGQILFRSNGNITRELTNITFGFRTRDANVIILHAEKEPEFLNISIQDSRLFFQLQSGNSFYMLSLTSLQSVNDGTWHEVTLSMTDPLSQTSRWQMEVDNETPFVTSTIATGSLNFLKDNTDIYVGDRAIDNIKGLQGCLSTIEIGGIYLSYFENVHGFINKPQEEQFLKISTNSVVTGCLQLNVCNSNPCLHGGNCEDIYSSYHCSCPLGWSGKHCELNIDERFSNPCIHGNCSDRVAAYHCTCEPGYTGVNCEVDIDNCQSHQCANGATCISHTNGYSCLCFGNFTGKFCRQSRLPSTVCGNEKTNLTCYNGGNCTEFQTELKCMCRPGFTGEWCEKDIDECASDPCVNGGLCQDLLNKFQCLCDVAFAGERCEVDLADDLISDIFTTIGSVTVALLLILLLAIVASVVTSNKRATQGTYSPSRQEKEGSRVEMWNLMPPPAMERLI
In words: co-IP; HEK293T cells co-transfected pairwise with a FLAG and an HA construct, 48 h; lysis in TBS (30 mM Tris-HCl pH 7.4, 150 mM NaCl) with 0.5% Nonidet P40; FLAG-IP on ANTI-FLAG M2 Affinity Gel 60-90 min at 4°C, elution with FLAG peptide; Western blot with HA and FLAG antibodies; for mutants HA/FLAG signal in eluates relative to WT, three biological replicates. As to conditions: partners not purified.

B1: Human canonical CRB2 (Crumbs homolog 2) (natural protein)
chain: not shown
notes: Crumbs homolog 2, human, cDNA NM_173689; Stood as bait (FLAG copy) and as prey (HA copy) in the pairwise co-IP matrix; each copy carries only one of the two tags; The FLAG copy was the bait of the mass spectrometry pull-downs; also called CRB2-FLAG; CRB2-HA; source: HEK293T, transfected, in lysate (co-IP); HEK293T, transfected, FLAG-IP on beads, washed and purified with 0.01% SDS (retina …)
In the case of B1, the “percent reduction of the interaction relative to CRB1 WT” value worked out at 19%.

For the origin of these results see paper PMC10992996, “Human CRB1 and CRB2 form homo- and heteromeric protein complexes in the retina” (Life Science Alliance, 2024).
